For two molecules, Kd and dH results are on record in paper PMC8151781, “Ca^2+ Regulates ERp57-Calnexin Complex Formation” (Molecules, 2021).

Sequences and labels used below:
B1: luminal domain of human calnexin (residues 21-481) (domain or fragment, UniProt P27824 21-481, looked up)
chain: HDGHDDDVIDIEDDLDDVIEEVEDSKPDTTAPPSSPKVTYKAPVPTGEVYFADSFDRGTLSGWILSKAKKDDTDDEIAKYDGKWEVEEMKESKLPGDKGLVLMSRAKHHAISAKLNKPFLFDTKPLIVQYEVNFQNGIECGGAYVKLLSKTPELNLDQFHDKTPYTIMFGPDKCGEDYKLHFIFRHKNPKTGIYEEKHAKRPDADLKTYFTDKKTHLYTLILNPDNSFEILVDQSVVNSGNLLNDMTPPVNPSREIEDPEDRKPEDWDERPKIPDPEAVKPDDWDEDAPAKIPDEEATKPEGWLDDEPEYVPDPDAEKPEDWDEDMDGEWEAPQIANPRCESAPGCGVWQRPVIDNPNYKGKWKPPMIDNPSYQGIWKPRKIPNPDFFEDLEPFRMTPFSAIGLELWSMTSDIFFDNFIICADRRIVDDWANDGWGLKKAADGAAEPGVVGQMIEAAEERP
notes: calnexin (CNX), human, luminal domain, residues 21-481; pET15b construct; the N-terminal His tag was removed from the plasmid and a His tag added at the C-terminus; also called CNX; ER-luminal domain of CNX
B2: human ERp57 (residues 25-505) (enzyme, UniProt P30101 25-505, looked up)
chain: SDVLELTDDNFESRISDTGSAGLMLVEFFAPWCGHCKRLAPEYEAAATRLKGIVPLAKVDCTANTNTCNKYGVSGYPTLKIFRDGEEAGAYDGPRTADGIVSHLKKQAGPASVPLRTEEEFKKFISDKDASIVGFFDDSFSEAHSEFLKAASNLRDNYRFAHTNVESLVNEYDDNGEGIILFRPSHLTNKFEDKTVAYTEQKMTSGKIKKFIQENIFGICPHMTEDNKDLIQGKDLLIAYYDVDYEKNAKGSNYWRNRVMMVAKKFLDAGHKLNFAVASRKTFSHELSDFGLESTAGEIPVVAIRTAKGEKFVMQEEFSRDGKALERFLQDYFDGNLKRYLKSEPIPESNDGPVKVVVAENFDEIVNNENKDVLIEFYAPWCGHCKNLEPKYKELGEKLSKDPNIVIAKMDATANDVPSPYEVRGFPTIYFSPANKKLNPKKYEGGRELSDFISYLQREATNPPVIQEEKPKKKKKAQEDL
notes: ERp57 (protein disulfide isomerase family member), human, residues 25-505; Cloned into the NdeI and BamHI sites of pET15b; also called wild-type ERp57

Holding throughout (settings): both partners purified
The target in assay [1] is B2. The experiment in a line: ITC; ERp57 (370 μM) in the syringe titrated into CNX (25 μM) in the cell; 20 mM HEPES pH 7.2, 100 mM NaCl, without Ca2+, 15 °C; one-set-of-sites model. (In general: Isothermal titration calorimetry measures the heat released or taken up as one component is titrated into another.)
The target in assay [2] is B2. The assay can be described thus: ITC; ERp57 (370 μM) in the syringe titrated into CNX (25 μM) in the cell; 20 mM HEPES pH 7.2, 100 mM NaCl, with 1 mM CaCl2, 15 °C; one-set-of-sites model.
Assay [3] concerns the target B1. The assay can be described thus: ITC; ERp57 (370 μM) in the syringe titrated into CNX (25 μM) in the cell; 20 mM HEPES pH 7.2, 100 mM NaCl, without Ca2+, 15 °C; one-set-of-sites model.
Assay [4] has as its target B1. The experiment in a line: ITC; ERp57 (370 μM) in the syringe titrated into CNX (25 μM) in the cell; 20 mM HEPES pH 7.2, 100 mM NaCl, with 1 mM CaCl2, 15 °C; one-set-of-sites model.

On to B1, for which the Kd (usually the free concentration of one partner at which half of the binding sites on the other are occupied at equilibrium, for simple one-to-one binding) came to 880 nM in assay [1] and 1520 nM in assay [2].

Turning to B2, the dH was -3.31 kcal/mol in assay [3] and -3.81 kcal/mol in assay [4].
